Reference: US20230399416A1 (MIRIMGENE, published 2023)

Key:
[1] = target: T1, mouse WARS1 recombinant protein (mouse, UniProt P32921 1-481, limits assumed); experiment: SPR, Biacore T200, CM5 chip, serially diluted GKB101 injected
T1 construct: In the immunoblot the endogenous WARS1 of J774.1A mouse macrophages was also detected; also called mouse recombinant protein
T1 sequence (looked up): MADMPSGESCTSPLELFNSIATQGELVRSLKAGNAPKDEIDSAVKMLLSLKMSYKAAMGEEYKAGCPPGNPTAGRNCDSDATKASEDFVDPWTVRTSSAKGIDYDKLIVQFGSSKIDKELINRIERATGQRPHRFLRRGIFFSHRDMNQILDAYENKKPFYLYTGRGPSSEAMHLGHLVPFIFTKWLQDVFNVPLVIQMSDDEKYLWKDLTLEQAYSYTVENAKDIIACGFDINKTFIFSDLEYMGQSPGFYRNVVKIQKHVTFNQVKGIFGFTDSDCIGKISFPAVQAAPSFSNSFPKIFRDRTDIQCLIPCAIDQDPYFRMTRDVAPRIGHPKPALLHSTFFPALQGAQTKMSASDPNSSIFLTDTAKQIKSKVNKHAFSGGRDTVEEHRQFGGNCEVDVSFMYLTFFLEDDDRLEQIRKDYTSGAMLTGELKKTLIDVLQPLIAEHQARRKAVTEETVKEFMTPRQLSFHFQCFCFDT
Description: (§1) 1) SPR: Binding ability was measured using Series S Sensor CM5 Chip (GE Healthcare Life Sciences) and GE Bioacore T200. A HBS-EP buffer (GE Healthcare Life Sciences) was used. After injecting serially diluted GKB101 or buffer for 1-10 minutes at a flow rate of 30 μL/min, the analyte was washed for 20 minutes.

[2] = target: T2, human WARS1 recombinant protein (human, UniProt P23381 1-471, limits assumed); experiment: as above
T2 construct: In the immunoblot the endogenous WARS1 of THP-1 human monocytes was also detected; also called human recombinant protein; tryptophanyl-tRNA synthetase 1, cytoplasmic
T2 sequence (looked up): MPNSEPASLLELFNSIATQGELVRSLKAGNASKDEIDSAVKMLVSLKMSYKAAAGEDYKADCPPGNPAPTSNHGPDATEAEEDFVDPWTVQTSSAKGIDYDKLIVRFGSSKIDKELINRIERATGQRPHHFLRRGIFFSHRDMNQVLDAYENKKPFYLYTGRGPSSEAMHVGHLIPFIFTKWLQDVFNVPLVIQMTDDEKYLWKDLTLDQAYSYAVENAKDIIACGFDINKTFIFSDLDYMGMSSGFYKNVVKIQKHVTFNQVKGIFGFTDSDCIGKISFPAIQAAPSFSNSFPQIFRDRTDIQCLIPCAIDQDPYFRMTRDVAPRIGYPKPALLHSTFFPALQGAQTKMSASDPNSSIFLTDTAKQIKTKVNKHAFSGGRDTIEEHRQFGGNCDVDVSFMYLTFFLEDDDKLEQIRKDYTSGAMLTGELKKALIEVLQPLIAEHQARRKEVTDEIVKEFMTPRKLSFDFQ
Description: as §1

B1: GKB101 (antibody, IgG1, V domains shown)
VH: EVQLLESGGGLVQPGGSLRLSCAASGFTFSSYDMSWVRQAPGKGLEWVSAISSGGSSIYYADSVKGRFTISRDNSKNTLYLQMNSLRAEDTAVYYCARDVAWDMLGDFDYWGQGTLVTVSS
VL: QSVLTQPPSASGTPGQRVTISCTGSSSNIGSNYVYWYQQLPGTAPKLLIYANSHRPSGVPDRFSGSKSGTSASLAISGLRSEDEADYYCGAWDDSLSAYVFGGGTKLTVTV
notes: IgG1 made from the selected scFv with the constant regions of herceptin expression vectors, expressed in Expi293F cells; Joined as printed they may lack a few residues at the junctions (VL/CL, CH2/CH3) and at the C-terminus of CH3; also called WARS1-specific antibody; anti-WARS1 antibody
Which results are given for B1?
Kd [1]: ~3.76 nM; Kd [2]: ~0.2 nM
